The test system of series [1] is HeLa Kyoto. Kind of series: solubility in G1/S (NP-40 vs SDS abundance) (log2 ratio); higher = more soluble. The following applies: cell cycle stage: G1/S.
Series [2] has as its system HeLa Kyoto. Kind of series: melting temperature (median over replicates), in situ; higher = more thermally stable.
For series [3], the system named is HeLa Kyoto. The series can be described thus: solubility change mitosis vs G1/S (difference of NP-40 vs SDS log2 ratios) (log2 ratio difference); higher = more soluble in mitosis.
Series [4] deals with HeLa Kyoto. The series can be described thus: thermal stability score vs G1/S (z-score of summed log2 fold changes over temperatures); higher = more thermally stable than in G1/S.
[5] abbreviates: cell cycle stage: early G1 (4.5 h after nocodazole release).

Experimental findings from the supplement of paper PMC5998384 are described below.
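For melting temperature (median over replicates), in situ in this document: HeLa Kyoto cells synchronized by double thymidine or nocodazole block, proteins quantified by TMT10plex mass spectrometry, three independent biological replicates.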
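For solubility change mitosis vs G1/S (difference of NP-40 vs SDS log2 ratios) in this document: synchronized HeLa Kyoto cells (double thymidine block for G1/S, nocodazole release for mitosis), protein amounts in NP-40 versus SDS lysates quantified by mass spectrometry, three biological replicates.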
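For solubility in G1/S (NP-40 vs SDS abundance) in this document: HeLa Kyoto cells arrested at G1/S by double thymidine block, proteins quantified by TMT10plex mass spectrometry in mild NP-40 versus SDS extracts, three biological replicates.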
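For thermal stability score vs G1/S (z-score of summed log2 fold changes over temperatures) in this document: synchronized HeLa Kyoto cells, proteins quantified by TMT10plex mass spectrometry, three biological replicates, mitosis taken 0.5 h after nocodazole release, G1/S directly after double thymidine block.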

With “MHSRGREIVVLLNPWSINEAVSSYCTYFIKQDSKSFGIMVSWKGIYFILTLFWGSFFGSIFMLSPFLPLMFVNPSWYRWINNRLVATWLTLPVALLETMFGVKVIITGDAFVPGERSVIIMNHRTRMDWMFLWNCLMRYSYLRLEKICLKASLKGVPGFGWAMQAAAYIFIHRKWKDDKSHFEDMIDYFCDIHEPLQLLIFPEGTDLTENSKSRSNAFAEKNGLQKYEYVLHPRTTGFTFVVDRLREGKNLDAVHDITVAYPHNIPQSEKHLLQGDFPREIHFHVHRYPIDTLPTSKEDLQLWCHKRWEEKEERLRSFYQGEKNFYFTGQSVIPPCKSELRVLVVKLLSILYWTLFSPAMCLLIYLYSLVKWYFIITIVIFVLQERIFGGLEIIELACYRLLHKQPHLNSKKNE [LCLAT1]”, the “solubility in G1/S (log2)” value in series [1] is -0.201. Besides, the melting temperature is 55.1 °C in series [2] (cell cycle stage: G1/S) and 54.7 °C in series [2] (cell cycle stage: mitosis). Also, the “solubility change mitosis (log2)” value in series [3] is -0.165. Also, the figures for the thermal stability score in series [4] (setting [5]) and in series [4] (cell cycle stage: mitosis) were -2.01 and -2.82, respectively.
For the substance MIA3, in series [1], the “solubility in G1/S (log2)” value was found to be 0.245. Also, the melting temperature in series [2] (cell cycle stage: G1/S) was 51.4 °C; in series [2] (cell cycle stage: mitosis), 52.2 °C. Also, the “solubility change mitosis (log2)” value in series [3] was -0.082. Further, the thermal stability score in series [4] (setting [5]) turned out to be 3.98; in series [4] (cell cycle stage: mitosis) it was 7.12.
On to “MIAAQLLAYYFTELKDDQVKKIDKYLYAMRLSDETLIDIMTRFRKEMKNGLSRDFNPTATVKMLPTFVRSIPDGSEKGDFIALDLGGSSFRILRVQVNHEKNQNVHMESEVYDTPENIVHGSGSQLFDHVAECLGDFMEKRKIKDKKLPVGFTFSFPCQQSKIDEAILITWTKRFKASGVEGADVVKLLNKAIKKRGDYDANIVAVVNDTVGTMMTCGYDDQHCEVGLIIGTGTNACYMEELRHIDLVEGDEGRMCINTEWGAFGDDGSLEDIRTEFDREIDRGSLNPGKQLFEKMVSGMYLGELVRLILVKMAKEGLLFEGRITPELLTRGKFNTSDVSAIEKNKEGLHNAKEILTRLGVEPSDDDCVSVQHVCTIVSFRSANLVAATLGAILNRLRDNKGTPRLRTTVGVDGSLYKTHPQYSRRFHKTLRRLVPDSDVRFLLSESGSGKGAAMVTAVAYRLAEQHRQIEETLAHFHLTKDMLLEVKKRMRAEMELGLRKQTHNNAVVKMLPSFVRRTPDGTENGDFLALDLGGTNFRVLLVKIRSGKKRTVEMHNKIYAIPIEIMQGTGEELFDHIVSCISDFLDYMGIKGPRMPLGFTFSFPCQQTSLDAGILITWTKGFKATDCVGHDVVTLLRDAIKRREEFDLDVVAVVNDTVGTMMTCAYEEPTCEVGLIVGTGSNACYMEEMKNVEMVEGDQGQMCINMEWGAFGDNGCLDDIRTHYDRLVDEYSLNAGKQRYEKMISGMYLGEIVRNILIDFTKKGFLFRGQISETLKTRGIFETKFLSQIESDRLALLQVRAILQQLGLNSTCDDSILVKTVCGVVSRRAAQLCGAGMAAVVDKIRENRGLDRLNVTVGVDGTLYKLHPHFSRIMHQTVKELSPKCNVSFLLSEDGSGKGAALITAVGVRLRTEASS [HK1]”, for which the “solubility in G1/S (log2)” value in series [1] is -0.0302. Further, the melting temperature in series [2] (cell cycle stage: G1/S) is 51.5 °C; in series [2] (cell cycle stage: mitosis), 51.9 °C. Moreover, in series [3], the “solubility change mitosis (log2)” value is -0.149. For the same substance, the thermal stability score in series [4] (setting [5]) is -0.647; in series [4] (cell cycle stage: mitosis), -0.641.
With MICAL3, the “solubility in G1/S (log2)” value in series [1] was -0.213. Further, the figures for the melting temperature in series [2] (cell cycle stage: G1/S) and in series [2] (cell cycle stage: mitosis) were 51.4 °C and 50.5 °C, respectively. Also, the “solubility change mitosis (log2)” value in series [3] is -0.0995. For the same substance, the thermal stability score in series [4] (setting [5]) was -0.909; in series [4] (cell cycle stage: mitosis), -0.953.
“MIIYRDLISHDEMFSDIYKIREIADGLCLEVEGKMVSRTEGNIDDSLIGGNASAEGPEGEGTESTVITGVDIVMNHHLQETSFTKEAYKKYIKDYMKSIKGKLEEQRPERVKPFMTGAAEQIKHILANFKNYQFFIGENMNPDGMVALLDYREDGVTPYMIFFKDGLEMEKC [TPT1]”: the “solubility in G1/S (log2)” value in series [1] came to 0.476. For the same substance, the figures for the melting temperature in series [2] (cell cycle stage: G1/S) and in series [2] (cell cycle stage: mitosis) were 53.5 °C and 52.9 °C, respectively. Moreover, the “solubility change mitosis (log2)” value in series [3] is -0.0912. Besides, the thermal stability score came out at 0.357 in series [4] (setting [5]) and 0.0736 in series [4] (cell cycle stage: mitosis).
